Laboratory results as given in the supplement of paper PMC9170038.

Tests used:
MS2 coat protein [1] = experiment: apparent KD of MS2 coat protein; designed switch direction (-1 OFF switch, 1 ON switch): 1; higher = weaker reporter binding
Summary of the method: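 For each design, the apparent KD is the median over clusters of curves fitted to normalised cluster fluorescence. Clusters held RNA switches with common flanks, transcribed on Illumina chips by stalled E. coli RNA polymerase. These were titrated with SNAP-549-labelled MS2 coat protein, doubling from 0.7 or 1.5 nM to 3 µM, without input, with 200 uM small-molecule ligand, or with an oligonucleotide input.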

MS2 coat protein [2] = experiment: apparent KD of MS2 coat protein; higher = weaker reporter binding; details: Eterna round: R107
Summary of the method: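 The designed RNA switches were transcribed on-chip from Illumina sequencing clusters. In 100 mM Tris-HCl pH 7.5, 80 mM KCl and 4 mM MgCl2, without or with constant ligand, they were titrated with SNAP-549-labelled MS2 coat protein from 0.7 or 1.5 nM to 3 µM in twofold steps. Apparent KD is the per-design median of normalised cluster binding-curve fits.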

[3] = Eterna round: R95, input ligand: FMN 200 uM
[4] = Eterna round: R95, input ligand: microRNA oligo, concentration not stated
[5] = Eterna round: R95, input ligand: none
[6] = input ligand: microRNA oligo, concentration not stated
[7] = input ligand: theophylline 20 uM
[8] = input ligand: theophylline 2 mM
[9] = input ligand: tryptophan 2.4 mM

Question: How did the “apparent KD of MS2 coat protein” value (MS2 coat protein [1]; [3]) turn out when “AAAACACAUGAGGAUCACCCAUGUACCAGGUACAUAGGAUAUCCAGGCGCCAGAUGGCGCGGAGAAGGAUGGAAAA [Xeveoned] (puzzle: Same State 1)” was run?
Answer: Its value is 90.8 nM.

Question: And the “apparent KD of MS2 coat protein” value (MS2 coat protein [1]; [4])?
Answer: Its value is 162 nM.

Question: What about the “apparent KD of MS2 coat protein” value (MS2 coat protein [1]; [5]) of the same sequence?
Answer: Its value is 251 nM.

Question: For “AAAACAUGACGAGGAUAUGGUACAUGAGGAUCACCCAUGUAUGUACCACGACGGAAACGUCGAAUCCAGAAGGCGUCAUGAAAA [Mat - Same State NG 2 - JL mod - D25] (Eterna round: R96, puzzle: Same State NG 2)”, which “apparent KD of MS2 coat protein” value (MS2 coat protein [1]; input ligand: FMN 200 uM) is on record?
Answer: Its value is 34.6 nM.

Question: What about the “apparent KD of MS2 coat protein” value (MS2 coat protein [1]; [6]) of the same sequence?
Answer: The value was 173 nM.

Question: What about the “apparent KD of MS2 coat protein” value (MS2 coat protein [1]; input ligand: none) of the same sequence?
Answer: The value was 194 nM.

Question: How did the “apparent KD of MS2 coat protein” value (MS2 coat protein [1]; [3]) turn out when “AAAAGUUGCGGGCAGGAUAUGUAUUAAAAUACAUGAGGAUCACCCAUGUGCGGGUAUAACACCCGACAGAAGGGCCAAUCGCGAC [Mat - Same State 2 - Mod of UCT - D95] (puzzle: Same State 2)” was run?
Answer: Its value is 29.6 nM.

Question: What about the “apparent KD of MS2 coat protein” value (MS2 coat protein [1]; [4]) of the same sequence?
Answer: The value was 160 nM.

Question: What about the “apparent KD of MS2 coat protein” value (MS2 coat protein [1]; [5]) of the same sequence?
Answer: Its value is 226 nM.

Question: Which results are given for “AAAAUACAUGAGGAUCACCCAUGUCUAAAGAACGGAGGAUAUAGGCGUACAAAACACGCACUAGAAGGCUGGGUGC [Tesoonge] (puzzle: Same State 1)”?
Answer: apparent KD of MS2 coat protein (MS2 coat protein [1]; [3]): 151 nM; apparent KD of MS2 coat protein (MS2 coat protein [1]; [4]): 116 nM; apparent KD of MS2 coat protein (MS2 coat protein [1]; [5]): 155 nM

Question: “AAAAUACAUGAGGAUCACCCAUGUGAAAAUAUGGGAGGAUAUACCGAAAAAAAAAAAAAGGUAGAAGGCCCAAAAA [SS! 1 MT 5] (Eterna round: R96, puzzle: Same State 1)” was tested. Which “apparent KD of MS2 coat protein” value (MS2 coat protein [1]; input ligand: FMN 200 uM) did it give?
Answer: The value was 39.5 nM.

Question: What about the “apparent KD of MS2 coat protein” value (MS2 coat protein [1]; [6]) of the same sequence?
Answer: Its value is 31 nM.

Question: What about the “apparent KD of MS2 coat protein” value (MS2 coat protein [1]; input ligand: none) of the same sequence?
Answer: The value was 34.6 nM.

Question: For “AAACAGUCGCUGCGGCGACCACAUGAGGAUCACCCAUGUACAUAGGAUAUCGCCUAAAAUACUGGCGAGAAGGGUGAUUAAAGA [Vegeonor] (Eterna round: R96, puzzle: Same State NG 3)”, which “apparent KD of MS2 coat protein” value (MS2 coat protein [1]; input ligand: FMN 200 uM) is on record?
Answer: The value was 90.4 nM.

Question: And the “apparent KD of MS2 coat protein” value (MS2 coat protein [1]; [6])?
Answer: The value was 12.4 nM.

Question: What about the “apparent KD of MS2 coat protein” value (MS2 coat protein [1]; input ligand: none) of the same sequence?
Answer: The value was 55.9 nM.

Question: “AAACGGCCGAACGGAGGACCACAUGAGGAUCACCCAUGUACAUAGGAUAUCAUGCCAACGAGGCAUGAGAAGGGUGAUUAAAAC [Ribigeso] (Eterna round: R96, puzzle: Same State NG 3)” was tested. Which “apparent KD of MS2 coat protein” value (MS2 coat protein [1]; input ligand: FMN 200 uM) did it give?
Answer: The value was 126 nM.

Question: What about the “apparent KD of MS2 coat protein” value (MS2 coat protein [1]; [6]) of the same sequence?
Answer: Its value is 27.6 nM.

Question: And the “apparent KD of MS2 coat protein” value (MS2 coat protein [1]; input ligand: none)?
Answer: Its value is 32 nM.

Question: Which “apparent KD of MS2 coat protein” value (MS2 coat protein [1]; [6]) does the source give for “AAACUGGAGGACAAGGAUAUGUGCUCUACGACAUGAGGAUCACCCAUGUGAGACGUAGUAGUGAAACAGAAGGUGUCCUAUUGUA [Tiarri] (Eterna round: R96, puzzle: Same State 2)” here?
Answer: Its value is 14.2 nM.

Question: “AAAGAAAACAUAGGAUAUGUAACAUGAGGAUCACCCAUGUGUAGCCCGUAAGGGAUGACGGAUGGACAGAAGGAUGGUCUCAGG [Default title] (Eterna round: R96, puzzle: Same State NG 2)” was tested. Which “apparent KD of MS2 coat protein” value (MS2 coat protein [1]; input ligand: FMN 200 uM) did it give?
Answer: The value was 403 nM.

Question: And the “apparent KD of MS2 coat protein” value (MS2 coat protein [1]; [6])?
Answer: Its value is 155 nM.

Question: And the “apparent KD of MS2 coat protein” value (MS2 coat protein [1]; input ligand: none)?
Answer: Its value is 104 nM.

Question: Which results are given for “AAAGCAAUGGUACAGGAUAUGUACGGUCGUACAUGAGGAUCACCCAUGUCGCUGGAAAGGUAGAUACAGAAGGGUGCCCAUGCGU [Riintile] (puzzle: Same State 2)”?
Answer: apparent KD of MS2 coat protein (MS2 coat protein [1]; [3]): 34.4 nM; apparent KD of MS2 coat protein (MS2 coat protein [1]; [4]): 161 nM; apparent KD of MS2 coat protein (MS2 coat protein [1]; [5]): 210 nM

Question: With “AAAGCCCGUGCUAAGGAUAUGCGUACUCCUACAUGAGGAUCACCCAUGUCCCGCCGAAAAGGAAGGCAGAAGGUAGCACGAGCAA [Teerarti] (puzzle: Same State 2)” as the sequence, how does the “apparent KD of MS2 coat protein” value (MS2 coat protein [1]; [3]) read?
Answer: Its value is 53.7 nM.

Question: And the “apparent KD of MS2 coat protein” value (MS2 coat protein [1]; [4])?
Answer: Its value is 96.5 nM.

Question: What about the “apparent KD of MS2 coat protein” value (MS2 coat protein [1]; [5]) of the same sequence?
Answer: The value was 102 nM.

Question: What does the source list for “AAAUAAAACACAGGAUAUGCAACCAAUACGGCGGCAGAAGGGUGAGACAUGAGGAUCACCCAUGUACACGUCCCACAGACGUGC [Onlaa] (Eterna round: R96, puzzle: Same State NG 1)”?
Answer: apparent KD of MS2 coat protein (MS2 coat protein [1]; input ligand: FMN 200 uM): 387 nM; apparent KD of MS2 coat protein (MS2 coat protein [1]; [6]): 243 nM; apparent KD of MS2 coat protein (MS2 coat protein [1]; input ligand: none): 175 nM

Question: “AACAAGCACAUGAGGAUCACCCAUGUGAGAAUAAAACCCUCAUAGGAUAUCCGCGGUUAACUCCCGGAGAAGGGUGAGACUCCU [Edtiedus] (Eterna round: R96, puzzle: Same State NG 3)” was tested. Which “apparent KD of MS2 coat protein” value (MS2 coat protein [1]; input ligand: FMN 200 uM) did it give?
Answer: Its value is 266 nM.

Question: What about the “apparent KD of MS2 coat protein” value (MS2 coat protein [1]; [6]) of the same sequence?
Answer: Its value is 429 nM.

Question: What about the “apparent KD of MS2 coat protein” value (MS2 coat protein [1]; input ligand: none) of the same sequence?
Answer: The value was 390 nM.

Question: How did the “apparent KD of MS2 coat protein” value (MS2 coat protein [1]; [6]) turn out when “AACAAUCUAUCUGAGGAUAUCAUGAAAAAAACAUGAGGAUCACCCAUGUGCAGGAAAACUGCAUAUGAGAAGGCAGAUAGAUUGU [salish99_SS2_r3_002] (Eterna round: R96, puzzle: Same State 2)” was run?
Answer: Its value is 480 nM.

Question: What does the source list for “UUAUAAGUACCGGUCCUCAGAUCCUCAUGACGAGGACCGGUACGGCCGCCACUCGAAACAUGAGGAUCACCCAUGUAAUAACACU [Brourdmod20]”?
Answer: apparent KD of MS2 coat protein (MS2 coat protein [2]; input ligand: arginine 13.2 mM): 19.2 nM; apparent KD of MS2 coat protein (MS2 coat protein [2]; [7]): 30.4 nM; apparent KD of MS2 coat protein (MS2 coat protein [2]; [8]): 24.6 nM

Question: “UUAUUUAACGGAAGGAGCGCGGAAAUUAAAGUGGGUAAACAUGAGGAUCACCCAUGUAAACCGCAGGUAGGUCGCCGAUAUUUAU [#22 Exclusion - Arginine B]” was tested. Which “apparent KD of MS2 coat protein” value (MS2 coat protein [2]; input ligand: arginine 13.2 mM) did it give?
Answer: Its value is 43 nM.

Question: What about the “apparent KD of MS2 coat protein” value (MS2 coat protein [2]; input ligand: none) of the same sequence?
Answer: Its value is 84.5 nM.

Question: And the “apparent KD of MS2 coat protein” value (MS2 coat protein [2]; [7])?
Answer: Its value is 67.3 nM.

Question: And the “apparent KD of MS2 coat protein” value (MS2 coat protein [2]; [8])?
Answer: Its value is 82.1 nM.

Question: What about the “apparent KD of MS2 coat protein” value (MS2 coat protein [2]; [9]) of the same sequence?
Answer: Its value is 71.9 nM.

Question: With “UUAUUUAUAAUGGAUACCAGUCGUAUGGCCCGGAAUCCUGACAUGAGGAUCACCCAUGUCGACCCUUGGCAGCUGUUAUGGGUUU [XTheo B #22]” as the sequence, how does the “apparent KD of MS2 coat protein” value (MS2 coat protein [2]; input ligand: arginine 13.2 mM) read?
Answer: Its value is 13.7 nM.

Question: What about the “apparent KD of MS2 coat protein” value (MS2 coat protein [2]; [7]) of the same sequence?
Answer: Its value is 16.3 nM.

Question: And the “apparent KD of MS2 coat protein” value (MS2 coat protein [2]; [9])?
Answer: Its value is 14.9 nM.

Question: Which results are given for “UUCAAAGGGAACGGUGCUGGUAACAGAGAUACCAGAGUAAUAAUACUCCCUUGGCAGCUCAUAACAUGAGGAUCACCCAUGUAAU [Exclusion Theophylline A GF21]”?
Answer: apparent KD of MS2 coat protein (MS2 coat protein [2]; input ligand: arginine 13.2 mM): 12.4 nM; apparent KD of MS2 coat protein (MS2 coat protein [2]; [7]): 17.4 nM; apparent KD of MS2 coat protein (MS2 coat protein [2]; [9]): 13.5 nM

Question: “UUCAGCUAGUCGGCCGCCACUACAUGAGCAUCAGCCAUGUUCCUAAAACACUGCUUCGGCAGUGGUAGGACCGGGACUAGCUGAG” was tested. Which “apparent KD of MS2 coat protein” value (MS2 coat protein [2]; input ligand: arginine 13.2 mM) did it give?
Answer: Its value is 10.4 nM.

Question: What about the “apparent KD of MS2 coat protein” value (MS2 coat protein [2]; input ligand: none) of the same sequence?
Answer: Its value is 11 nM.

Question: What about the “apparent KD of MS2 coat protein” value (MS2 coat protein [2]; [7]) of the same sequence?
Answer: The value was 12 nM.

Question: And the “apparent KD of MS2 coat protein” value (MS2 coat protein [2]; [8])?
Answer: The value was 12.6 nM.

Question: And the “apparent KD of MS2 coat protein” value (MS2 coat protein [2]; [9])?
Answer: Its value is 25.9 nM.
